The supplement of paper PMC12855868

B1: library; numbered along this chain (parent)
chain: MAAAGGARLLRAASAVLGGPAGRWLHHAGSRAGSSGLLRNRGPGGSAEASRSLSVSARARSSSEDKITVHFINRDGETLTTKGKVGDSLLDVVVENNLDIDGFGACEGTLACSTCHLIFEDHIYEKLDAITDEENDMLDLAYGLTDRSRLGCQICLTKSMDNMTVRVPETVADARQSIDVGKTS

Variants of: B1
Test: scaled log2 fold change in cell abundance, elesclomol vs control (0 = silent mean, 1 = nonsense mean) (scaled log2 ratio); higher = higher viability under elesclomol (loss of FDX1 cuproptosis function)
Conditions: glucose 10 mM
Procedure: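 Deep mutational scan of full-length human FDX1: a pooled saturation-mutagenesis ORF library (every residue 2-184 mutated to all 19 amino acids plus stop, and silent codons where available) was expressed by lentivirus in FDX1-knockout ABC1 (14 days) or HEK293T (11 days) cells grown with elesclomol (ES) or DMSO control. Variant abundance came from ORF sequencing. The log2 fold change (ES vs control, mean of duplicates) was centred on the silent-variant mean (0) and scaled to the nonsense-variant mean (1). Higher values mean greater viability under ES, i.e. loss of FDX1 function in cuproptosis.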

[1] = with ABC1 FDX1 KO, elesclomol 5 nM, 14 days
[2] = with HEK293T FDX1 KO, elesclomol 40 nM, 11 days
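Further: variant abundance is its share of total variant reads in each endpoint sample, from next-generation sequencing of the integrated ORF PCR-amplified out of genomic DNA.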

| Variant | scaled log2 fold change [1] | scaled log2 fold change [2] |
| --- | --- | --- |
| MAAAGGARLLRAASAVLGGPAGRWLHHAGSRAGSSGLLRNRGPGGSAEASRSLSVSARARSSSEDKITVHFINRDGETLTTKGKVGDSLLDVVVENNIDIDGFGACEGTLACSTCHLIFEDHIYEKLDAITDEENDMLDLAYGLTDRSRLGCQICLTKSMDNMTVRVPETVADARQSIDVGKTS | -0.0119 | -0.482 |
| MAAAGGARLLRAASAVLGGPAGRWLHHAGSRAGSSGLLRNRGPGGSAEASRSLSVSARARSSSEDKITVHFINRDGETLTTKGKVGDSLLDVVVENNKDIDGFGACEGTLACSTCHLIFEDHIYEKLDAITDEENDMLDLAYGLTDRSRLGCQICLTKSMDNMTVRVPETVADARQSIDVGKTS | 0.356 | 0.0251 |
| MAAAGGARLLRAASAVLGGPAGRWLHHAGSRAGSSGLLRNRGPGGSAEASRSLSVSARARSSSEDKITVHFINRDGETLTTKGKVGDSLLDVVVENNMDIDGFGACEGTLACSTCHLIFEDHIYEKLDAITDEENDMLDLAYGLTDRSRLGCQICLTKSMDNMTVRVPETVADARQSIDVGKTS | 0.0485 | 0.18 |
| MAAAGGARLLRAASAVLGGPAGRWLHHAGSRAGSSGLLRNRGPGGSAEASRSLSVSARARSSSEDKITVHFINRDGETLTTKGKVGDSLLDVVVENNNDIDGFGACEGTLACSTCHLIFEDHIYEKLDAITDEENDMLDLAYGLTDRSRLGCQICLTKSMDNMTVRVPETVADARQSIDVGKTS | 0.309 | 0.504 |
| MAAAGGARLLRAASAVLGGPAGRWLHHAGSRAGSSGLLRNRGPGGSAEASRSLSVSARARSSSEDKITVHFINRDGETLTTKGKVGDSLLDVVVENNPDIDGFGACEGTLACSTCHLIFEDHIYEKLDAITDEENDMLDLAYGLTDRSRLGCQICLTKSMDNMTVRVPETVADARQSIDVGKTS | -0.901 | 0.205 |
| MAAAGGARLLRAASAVLGGPAGRWLHHAGSRAGSSGLLRNRGPGGSAEASRSLSVSARARSSSEDKITVHFINRDGETLTTKGKVGDSLLDVVVENNQDIDGFGACEGTLACSTCHLIFEDHIYEKLDAITDEENDMLDLAYGLTDRSRLGCQICLTKSMDNMTVRVPETVADARQSIDVGKTS | 0.167 | -0.327 |
| MAAAGGARLLRAASAVLGGPAGRWLHHAGSRAGSSGLLRNRGPGGSAEASRSLSVSARARSSSEDKITVHFINRDGETLTTKGKVGDSLLDVVVENNRDIDGFGACEGTLACSTCHLIFEDHIYEKLDAITDEENDMLDLAYGLTDRSRLGCQICLTKSMDNMTVRVPETVADARQSIDVGKTS | 0.136 | 0.607 |
| MAAAGGARLLRAASAVLGGPAGRWLHHAGSRAGSSGLLRNRGPGGSAEASRSLSVSARARSSSEDKITVHFINRDGETLTTKGKVGDSLLDVVVENNSDIDGFGACEGTLACSTCHLIFEDHIYEKLDAITDEENDMLDLAYGLTDRSRLGCQICLTKSMDNMTVRVPETVADARQSIDVGKTS | 0.421 | -0.0745 |
| MAAAGGARLLRAASAVLGGPAGRWLHHAGSRAGSSGLLRNRGPGGSAEASRSLSVSARARSSSEDKITVHFINRDGETLTTKGKVGDSLLDVVVENNTDIDGFGACEGTLACSTCHLIFEDHIYEKLDAITDEENDMLDLAYGLTDRSRLGCQICLTKSMDNMTVRVPETVADARQSIDVGKTS | -0.168 | 0.331 |
| MAAAGGARLLRAASAVLGGPAGRWLHHAGSRAGSSGLLRNRGPGGSAEASRSLSVSARARSSSEDKITVHFINRDGETLTTKGKVGDSLLDVVVENNVDIDGFGACEGTLACSTCHLIFEDHIYEKLDAITDEENDMLDLAYGLTDRSRLGCQICLTKSMDNMTVRVPETVADARQSIDVGKTS | -0.0512 | -0.662 |
| MAAAGGARLLRAASAVLGGPAGRWLHHAGSRAGSSGLLRNRGPGGSAEASRSLSVSARARSSSEDKITVHFINRDGETLTTKGKVGDSLLDVVVENNWDIDGFGACEGTLACSTCHLIFEDHIYEKLDAITDEENDMLDLAYGLTDRSRLGCQICLTKSMDNMTVRVPETVADARQSIDVGKTS | 0.476 | 0.189 |
| MAAAGGARLLRAASAVLGGPAGRWLHHAGSRAGSSGLLRNRGPGGSAEASRSLSVSARARSSSEDKITVHFINRDGETLTTKGKVGDSLLDVVVENNYDIDGFGACEGTLACSTCHLIFEDHIYEKLDAITDEENDMLDLAYGLTDRSRLGCQICLTKSMDNMTVRVPETVADARQSIDVGKTS | 0.000145 | -0.257 |
| MAAAGGARLLRAASAVLGGPAGRWLHHAGSRAGSSGLLRNRGPGGSAEASRSLSVSARARSSSEDKITVHFINRDGETLTTKGKVGDSLLDVVVENNLAIDGFGACEGTLACSTCHLIFEDHIYEKLDAITDEENDMLDLAYGLTDRSRLGCQICLTKSMDNMTVRVPETVADARQSIDVGKTS | 0.0591 | -1.37 |
| MAAAGGARLLRAASAVLGGPAGRWLHHAGSRAGSSGLLRNRGPGGSAEASRSLSVSARARSSSEDKITVHFINRDGETLTTKGKVGDSLLDVVVENNLCIDGFGACEGTLACSTCHLIFEDHIYEKLDAITDEENDMLDLAYGLTDRSRLGCQICLTKSMDNMTVRVPETVADARQSIDVGKTS | 0.108 | 0.138 |
| MAAAGGARLLRAASAVLGGPAGRWLHHAGSRAGSSGLLRNRGPGGSAEASRSLSVSARARSSSEDKITVHFINRDGETLTTKGKVGDSLLDVVVENNLEIDGFGACEGTLACSTCHLIFEDHIYEKLDAITDEENDMLDLAYGLTDRSRLGCQICLTKSMDNMTVRVPETVADARQSIDVGKTS | 0.144 | 0.199 |
| MAAAGGARLLRAASAVLGGPAGRWLHHAGSRAGSSGLLRNRGPGGSAEASRSLSVSARARSSSEDKITVHFINRDGETLTTKGKVGDSLLDVVVENNLFIDGFGACEGTLACSTCHLIFEDHIYEKLDAITDEENDMLDLAYGLTDRSRLGCQICLTKSMDNMTVRVPETVADARQSIDVGKTS | -0.0227 | 0.0629 |
